Laboratory results: patent publication US20120156203A1

Molecular target: human IL13 (human) (UniProt P35225)
Assay: cell-based or functional assay

Sequence of human IL13 (human) (P35225 other isoform, or with tags, fused parts or gaps limits assumed): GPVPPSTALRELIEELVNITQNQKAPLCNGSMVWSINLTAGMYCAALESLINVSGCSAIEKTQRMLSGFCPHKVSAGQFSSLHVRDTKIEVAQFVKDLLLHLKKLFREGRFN

A concentration for complete inhibition of IL13-suppressed CD14 expression on human monocytes (0.813 nM IL13) of over 80 nM was found for “anti-IL13 MAb JES10-5A2 (BD Biosciences-Pharmingen) (antibody)” in this work.
